IntAct's records for PubMed 17190814

B1: Antiviral innate immune response receptor RIG-I (Homo sapiens), O95786-1 (parent)
chain: MTTEQRRSLQAFQDYIRKTLDPTYILSYMAPWFREEEVQYIQAEKNNKGPMEAATLFLKFLLELQEEGWFRGFLDALDHAGYSGLYEAIESWDFKKIEKLEEYRLLLKRLQPEFKTRIIPTDIISDLSECLINQECEEILQICSTKGMMAGAEKLVECLLRSDKENWPKTLKLALEKERNKFSELWIVEKGIKDVETEDLEDKMETSDIQIFYQEDPECQNLSENSCPPSEVSDTNLYSPFKPRNYQLELALPAMKGKNTIICAPTGCGKTFVSLLICEHHLKKFPQGQKGKVVFFANQIPVYEQQKSVFSKYFERHGYRVTGISGATAENVPVEQIVENNDIIILTPQILVNNLKKGTIPSLSIFTLMIFDECHNTSKQHPYNMIMFNYLDQKLGGSSGPLPQVIGLTASVGVGDAKNTDEALDYICKLCASLDASVIATVKHNLEELEQVVYKPQKFFRKVESRISDKFKYIIAQLMRDTESLAKRICKDLENLSQIQNREFGTQKYEQWIVTVQKACMVFQMPDKDEESRICKALFLYTSHLRKYNDALIISEHARMKDALDYLKDFFSNVRAAGFDEIEQDLTQRFEEKLQELESVSRDPSNENPKLEDLCFILQEEYHLNPETITILFVKTRALVDALKNWIEGNPKLSFLKPGILTGRGKTNQNTGMTLPAQKCILDAFKASGDHNILIATSVADEGIDIAQCNLVILYEYVGNVIKMIQTRGRGRARGSKCFLLTSNAGVIEKEQINMYKEKMMNDSILRLQTWDEAVFREKILHIQTHEKFIRDSQEKPKPVPDKENKKLLCRKCKALACYTADVRVIEECHYTVLGDAFKECFVSRPHPKPKQFSSFEKRAKIFCARQNCSHDWGIHVKYKTFEIPVIKIESFVVEDIATGVQTLYSKWKDFHFEKIPFDPAEMSK

Variants of: B1
Conditions: with MAVS

Row | Variant | effect of a mutation on the interaction
1 | T55I | decreasing interaction strength
